# Data from the RNAGym collection of RNA variant scans (doi:10.7554/elife.90254).
# B1: LINE1-mini (parent)
# chain: GGCAGAGCUCAACACAGCGUGGCAAAGUGGCUGUGGCUAGACUGCC
# Variants of: B1
# Assay: self-cleavage, relative activity (ratio to wild type); higher = more cleavage; in vitro, sequencing; the parent is a self-cleaving ribozyme
row,Variant,self-cleavage
1,GGCAGAGCUCAACACAGCGUGGCAAAGUGGCGGUGGCUUGACUGCC [U32G A39U],0.1
2,GGCAGAGCGCAACACAGUGUGGCAAAGUGGCUGUGGCUAGACUGCC [U9G C18U],0.09
3,GGCAGUGCUCAACACCGCGUGGCAAAGUGGCUGUGGCUAGACUGCC [A6U A16C],0.09
4,GGCAGAGCUCAACACAACGUGGCAAAGUGGCUCUGGCUAGACUGCC [G17A G33C],0.04
5,GGCAGAGCUCAACACAGAGUGGCAAAGUGGCUGUGGCCAGACUGCC [C18A U38C],0.09
6,GGCAGCGCGCAACACAGCGUGGCAAAGUGGCUGUGGCUAGACUGCC [A6C U9G],0.11
7,GGCAGAGCUCAACACAGCCUGGCAAAGUGGCUGUUGCUAGACUGCC [G19C G35U],0.07
8,GGUAGAGCUCAACACAGCGUGGCAAACUGGCUGUGGCUAGACUGCC [C3U G27C],0.2
9,CGCAGAGCUCAACAGAGCGUGGCAAAGUGGCUGUGGCUAGACUGCC [G1C C15G],0.03
10,GGCAGAGCGCAACACAGCGUGGCAAAGUGGCUGUGGCUACACUGCC [U9G G40C],0.08
11,GCCAGAGCUCAACACAGUGUGGCAAAGUGGCUGUGGCUAGACUGCC [G2C C18U],0.09
12,GGCAGAGCUCAACACAGCGUGCCAAAGAGGCUGUGGCUAGACUGCC [G22C U28A],0.44
13,GUCAGAGCUCAACACAGCGUGGUAAAGUGGCUGUGGCUAGACUGCC [G2U C23U],0.15
14,GGCAGAGCUCAACACAGCGUGGCAAAGUGGCUGUGGAUAGACAGCC [C37A U43A],0.13
15,GGCAGAGCUCAACACAGCGUGGCAAAGUGGCUGUGGUUAGAUUGCC [C37U C42U],0.1
16,GGCCGAGCUCAACACAGCGGGGCAAAGUGGCUGUGGCUAGACUGCC [A4C U20G],0.1
17,GGCAGAGCUAAACACAGCGUGGCAAAGUGGCUGUGGUUAGACUGCC [C10A C37U],0.01
18,GACAGAGCUCAACACAUCGUGGCAAAGUGGCUGUGGCUAGACUGCC [G2A G17U],0.19
19,GGCAGAGCUCAAAACAGUGUGGCAAAGUGGCUGUGGCUAGACUGCC [C13A C18U],0.09

row,Variant,self-cleavage
1,GGCAGAGCUCAACACAGCGUGGUAAAGUGGCUGUGGCUAGACUGCU [C23U C46U],1.39
2,GGCAGAGCUCAACAGAGCGUGGCAAAGUGGGUGUGGCUAGACUGCC [C15G C31G],0.03
3,GGCAGAGCUCAAGACAGCGUGGCAAAGUGGCUGUGGCUCGACUGCC [C13G A39C],0.16
4,GGCGGAGCUCAACACAGCGUGGCAUAGUGGCUGUGGCUAGACUGCC [A4G A25U],0.62
5,GGCAGAGAUCAACACAGCGUUGCAAAGUGGCUGUGGCUAGACUGCC [C8A G21U],0.23
6,GACAGAGCUCAACACAGCGUGGCAAAGUGGCUGUGGCUAGACUACC [G2A G44A],0.49
7,GACAGAGCUCAACACAGCGUGCCAAAGUGGCUGUGGCUAGACUGCC [G2A G22C],0.29
8,GGCCGAGCUCAACACAGCGUGGCAAAGUGGCUGUGUCUAGACUGCC [A4C G36U],0.1
9,GGCAGAGCUCAACAGAGCAUGGCAAAGUGGCUGUGGCUAGACUGCC [C15G G19A],0.07
10,GGCAGAGCUCAACACAGCGUUGCAAAGCGGCUGUGGCUAGACUGCC [G21U U28C],0.92
11,GGCAGAGCUCAACACAGCGUGGCAAAGUGGCUGCGGCUAGACCGCC [U34C U43C],0.04
12,GGCAGAGCUCAACACAGCGUGGCAAAGUGGCUGUGGCGAGACUGAC [U38G C45A],0.04
13,GGCAGAGAUCAACACAGCGUGGCAAAGUGGCUGUCGCUAGACUGCC [C8A G35C],0.16
14,CGCAGAGCUCAACACAGCGUGGCAAAGUGGCUGUGGCAAGACUGCC [G1C U38A],0.05
15,GGCAGAGCUCAACACAGCGUGGCUAAGUGGCUGUGGCUAUACUGCC [A24U G40U],0.19
16,GGCAGAGCUCAACACAGCGUGGCAAAGUGGCCGUGGCUAGACUGCC [U32C],0.2
17,GGCAGAGCUCAACACAGCAUGGCAAAGUGGUUGUGGCUAGACUGCC [G19A C31U],0.6
18,GGGAGAGCUCAACACAGCGUGUCAAAGUGGCUGUGGCUAGACUGCC [C3G G22U],0.38
19,GGCAGAGCGCAACACAGCGUGGCAAAGUGGCCGUGGCUAGACUGCC [U9G U32C],0.05

row,Variant,self-cleavage
1,GGCAGAUCUCAACACAGCGCGGCAAAGUGGCUGUGGCUAGACUGCC [G7U U20C],0.07
2,GGCGGAGCUCAACACAGCGUGGCAAAGUGGCUGUGGCCAGACUGCC [A4G U38C],0.31
3,GGCAGAGUUCAACACAGCGUGACAAAGUGGCUGUGGCUAGACUGCC [C8U G22A],0.15
4,GGCAGAGCUCAACACAGCGUGGCAAAGUGGCUGUGGCUAGAUAGCC [C42U U43A],0.12
5,GGCAGAGCUCAACACAGCGUGGCACAGUGGCUGUGGCUAGGCUGCC [A25C A41G],0.28
6,GGCAGAGCUCACCACAGCGUGGCAAAGUGGCUGUGGCGAGACUGCC [A12C U38G],0.03
7,GGCAGAGGUCAACACAGCGUCGCAAAGUGGCUGUGGCUAGACUGCC [C8G G21C],0.06
8,GGCAGAGCUCAACACAGCGUGGCAAAGAGGCUGUAGCUAGACUGCC [U28A G35A],0.15
9,GGCAGAGCUCAAUACAGCGUGGCAAAGUGGCUGUGGGUAGACUGCC [C13U C37G],0.1
10,GGCAGAGCUCAACACAGCGUUGCAAAGUGGCUGUGGCUAGACGGCC [G21U U43G],0.07
11,GGCAGAGCUCAACACAGCGUGGCAAAGUAGCUGUGGCUAGCCUGCC [G29A A41C],0.05
12,GGCAGAGCUCAACACAGCGUUGCAAAGUUGCUGUGGCUAGACUGCC [G21U G29U],0.55
13,GCCAGAGCUCAACACAGCGAGGCAAAGUGGCUGUGGCUAGACUGCC [G2C U20A],0.06
14,GGCUGAGCUCAACACAGCGUGGCAAGGUGGCUGUGGCUAGACUGCC [A4U A26G],0.14
15,UGCACAGCUCAACACAGCGUGGCAAAGUGGCUGUGGCUAGACUGCC [G1U G5C],0.04
16,GGCAGAGCUCAACACAGCGUGGCAAAGUGGCUGUCGGUAGACUGCC [G35C C37G],0.09
17,GGCAGAGCUCAACACAGCGUGGCAACGUGGCUGUGGCUAGACUGUC [A26C C45U],1.17
18,GGCAGAGCUCAACACAGCUUGGCAAAGUGGCUGUAGCUAGACUGCC [G19U G35A],0.12
